Source: the Human Domainome abundance scans (Beltran et al. 2025)
± gives the uncertainty stated by the source.

B1: Far upstream element-binding protein 1, residues 184 to 257; numbered along this chain, Q96AE4 (parent)
chain: GNAVQEIMIPASKAGLVIGKGGETIKQLQERAGVKMVMIQDGPQNTGADKPLRITGDPYKVQQAKEMVLELIRD

Variants of: B1
Test: abundance fitness (aPCA) (normalised: wild type 0, dead -1); higher = more abundant; growth selection in yeast, the domain comes from the species named
Details: Homo sapiens

Variant | abundance fitness
GNAVQEIMIPASKAGLVIGKGGETIKTLQERAGVKMVMIQDGPQNTGADKPLRITGDPYKVQQAKEMVLELIRD | -0.081 ± 0.036
GNAVQEIMIPASKAGLVIGKGGETIKVLQERAGVKMVMIQDGPQNTGADKPLRITGDPYKVQQAKEMVLELIRD | -0.095 ± 0.032
GNAVQEIMIPASKAGLVIGKGGETIKWLQERAGVKMVMIQDGPQNTGADKPLRITGDPYKVQQAKEMVLELIRD | -0.05 ± 0.035
GNAVQEIMIPASKAGLVIGKGGETIKYLQERAGVKMVMIQDGPQNTGADKPLRITGDPYKVQQAKEMVLELIRD | -0.129 ± 0.049
GNAVQEIMIPASKAGLVIGKGGETIKQAQERAGVKMVMIQDGPQNTGADKPLRITGDPYKVQQAKEMVLELIRD | -0.467 ± 0.037
GNAVQEIMIPASKAGLVIGKGGETIKQCQERAGVKMVMIQDGPQNTGADKPLRITGDPYKVQQAKEMVLELIRD | -0.399 ± 0.051
GNAVQEIMIPASKAGLVIGKGGETIKQDQERAGVKMVMIQDGPQNTGADKPLRITGDPYKVQQAKEMVLELIRD | -0.692 ± 0.061
GNAVQEIMIPASKAGLVIGKGGETIKQEQERAGVKMVMIQDGPQNTGADKPLRITGDPYKVQQAKEMVLELIRD | -0.63 ± 0.046
GNAVQEIMIPASKAGLVIGKGGETIKQFQERAGVKMVMIQDGPQNTGADKPLRITGDPYKVQQAKEMVLELIRD | -0.225 ± 0.062
GNAVQEIMIPASKAGLVIGKGGETIKQGQERAGVKMVMIQDGPQNTGADKPLRITGDPYKVQQAKEMVLELIRD | -0.825 ± 0.035
GNAVQEIMIPASKAGLVIGKGGETIKQIQERAGVKMVMIQDGPQNTGADKPLRITGDPYKVQQAKEMVLELIRD | -0.026 ± 0.058
GNAVQEIMIPASKAGLVIGKGGETIKQKQERAGVKMVMIQDGPQNTGADKPLRITGDPYKVQQAKEMVLELIRD | -0.791 ± 0.059
GNAVQEIMIPASKAGLVIGKGGETIKQMQERAGVKMVMIQDGPQNTGADKPLRITGDPYKVQQAKEMVLELIRD | 0.026 ± 0.038
GNAVQEIMIPASKAGLVIGKGGETIKQNQERAGVKMVMIQDGPQNTGADKPLRITGDPYKVQQAKEMVLELIRD | -0.415 ± 0.057
GNAVQEIMIPASKAGLVIGKGGETIKQPQERAGVKMVMIQDGPQNTGADKPLRITGDPYKVQQAKEMVLELIRD | -0.77 ± 0.051
GNAVQEIMIPASKAGLVIGKGGETIKQQQERAGVKMVMIQDGPQNTGADKPLRITGDPYKVQQAKEMVLELIRD | -0.612 ± 0.055
GNAVQEIMIPASKAGLVIGKGGETIKQRQERAGVKMVMIQDGPQNTGADKPLRITGDPYKVQQAKEMVLELIRD | -0.78 ± 0.036
GNAVQEIMIPASKAGLVIGKGGETIKQSQERAGVKMVMIQDGPQNTGADKPLRITGDPYKVQQAKEMVLELIRD | -0.639 ± 0.041
GNAVQEIMIPASKAGLVIGKGGETIKQTQERAGVKMVMIQDGPQNTGADKPLRITGDPYKVQQAKEMVLELIRD | -0.315 ± 0.041
GNAVQEIMIPASKAGLVIGKGGETIKQVQERAGVKMVMIQDGPQNTGADKPLRITGDPYKVQQAKEMVLELIRD | -0.155 ± 0.032
GNAVQEIMIPASKAGLVIGKGGETIKQWQERAGVKMVMIQDGPQNTGADKPLRITGDPYKVQQAKEMVLELIRD | -0.284 ± 0.035
GNAVQEIMIPASKAGLVIGKGGETIKQYQERAGVKMVMIQDGPQNTGADKPLRITGDPYKVQQAKEMVLELIRD | -0.338 ± 0.055
GNAVQEIMIPASKAGLVIGKGGETIKQLAERAGVKMVMIQDGPQNTGADKPLRITGDPYKVQQAKEMVLELIRD | -0.018 ± 0.032
GNAVQEIMIPASKAGLVIGKGGETIKQLCERAGVKMVMIQDGPQNTGADKPLRITGDPYKVQQAKEMVLELIRD | -0.2 ± 0.045
GNAVQEIMIPASKAGLVIGKGGETIKQLDERAGVKMVMIQDGPQNTGADKPLRITGDPYKVQQAKEMVLELIRD | -0.602 ± 0.06

Variant | abundance fitness
GNAVQEIMIPASKAGLVIGKGGETIKQLEERAGVKMVMIQDGPQNTGADKPLRITGDPYKVQQAKEMVLELIRD | -0.026 ± 0.034
GNAVQEIMIPASKAGLVIGKGGETIKQLGERAGVKMVMIQDGPQNTGADKPLRITGDPYKVQQAKEMVLELIRD | -0.142 ± 0.029
GNAVQEIMIPASKAGLVIGKGGETIKQLHERAGVKMVMIQDGPQNTGADKPLRITGDPYKVQQAKEMVLELIRD | -0.557 ± 0.062
GNAVQEIMIPASKAGLVIGKGGETIKQLIERAGVKMVMIQDGPQNTGADKPLRITGDPYKVQQAKEMVLELIRD | -0.342 ± 0.06
GNAVQEIMIPASKAGLVIGKGGETIKQLKERAGVKMVMIQDGPQNTGADKPLRITGDPYKVQQAKEMVLELIRD | -0.189 ± 0.04
GNAVQEIMIPASKAGLVIGKGGETIKQLLERAGVKMVMIQDGPQNTGADKPLRITGDPYKVQQAKEMVLELIRD | -0.45 ± 0.033
GNAVQEIMIPASKAGLVIGKGGETIKQLMERAGVKMVMIQDGPQNTGADKPLRITGDPYKVQQAKEMVLELIRD | -0.044 ± 0.042
GNAVQEIMIPASKAGLVIGKGGETIKQLPERAGVKMVMIQDGPQNTGADKPLRITGDPYKVQQAKEMVLELIRD | -0.748 ± 0.044
GNAVQEIMIPASKAGLVIGKGGETIKQLRERAGVKMVMIQDGPQNTGADKPLRITGDPYKVQQAKEMVLELIRD | -0.137 ± 0.027
GNAVQEIMIPASKAGLVIGKGGETIKQLSERAGVKMVMIQDGPQNTGADKPLRITGDPYKVQQAKEMVLELIRD | -0.029 ± 0.031
GNAVQEIMIPASKAGLVIGKGGETIKQLTERAGVKMVMIQDGPQNTGADKPLRITGDPYKVQQAKEMVLELIRD | -0.247 ± 0.038
GNAVQEIMIPASKAGLVIGKGGETIKQLVERAGVKMVMIQDGPQNTGADKPLRITGDPYKVQQAKEMVLELIRD | -0.351 ± 0.037
GNAVQEIMIPASKAGLVIGKGGETIKQLWERAGVKMVMIQDGPQNTGADKPLRITGDPYKVQQAKEMVLELIRD | -0.345 ± 0.036
GNAVQEIMIPASKAGLVIGKGGETIKQLYERAGVKMVMIQDGPQNTGADKPLRITGDPYKVQQAKEMVLELIRD | -0.67 ± 0.072
GNAVQEIMIPASKAGLVIGKGGETIKQLQARAGVKMVMIQDGPQNTGADKPLRITGDPYKVQQAKEMVLELIRD | -0.039 ± 0.035
GNAVQEIMIPASKAGLVIGKGGETIKQLQDRAGVKMVMIQDGPQNTGADKPLRITGDPYKVQQAKEMVLELIRD | -0.024 ± 0.046
GNAVQEIMIPASKAGLVIGKGGETIKQLQGRAGVKMVMIQDGPQNTGADKPLRITGDPYKVQQAKEMVLELIRD | -0.122 ± 0.028
GNAVQEIMIPASKAGLVIGKGGETIKQLQHRAGVKMVMIQDGPQNTGADKPLRITGDPYKVQQAKEMVLELIRD | -0.016 ± 0.048
GNAVQEIMIPASKAGLVIGKGGETIKQLQIRAGVKMVMIQDGPQNTGADKPLRITGDPYKVQQAKEMVLELIRD | -0.03 ± 0.054
GNAVQEIMIPASKAGLVIGKGGETIKQLQKRAGVKMVMIQDGPQNTGADKPLRITGDPYKVQQAKEMVLELIRD | -0.01 ± 0.042
GNAVQEIMIPASKAGLVIGKGGETIKQLQLRAGVKMVMIQDGPQNTGADKPLRITGDPYKVQQAKEMVLELIRD | -0.026 ± 0.031
GNAVQEIMIPASKAGLVIGKGGETIKQLQMRAGVKMVMIQDGPQNTGADKPLRITGDPYKVQQAKEMVLELIRD | 0.025 ± 0.041
GNAVQEIMIPASKAGLVIGKGGETIKQLQQRAGVKMVMIQDGPQNTGADKPLRITGDPYKVQQAKEMVLELIRD | -0.035 ± 0.04
GNAVQEIMIPASKAGLVIGKGGETIKQLQRRAGVKMVMIQDGPQNTGADKPLRITGDPYKVQQAKEMVLELIRD | 0.01 ± 0.027
GNAVQEIMIPASKAGLVIGKGGETIKQLQSRAGVKMVMIQDGPQNTGADKPLRITGDPYKVQQAKEMVLELIRD | -0.007 ± 0.032

Variant | abundance fitness
GNAVQEIMIPASKAGLVIGKGGETIKQLQTRAGVKMVMIQDGPQNTGADKPLRITGDPYKVQQAKEMVLELIRD | -0.071 ± 0.038
GNAVQEIMIPASKAGLVIGKGGETIKQLQVRAGVKMVMIQDGPQNTGADKPLRITGDPYKVQQAKEMVLELIRD | -0.029 ± 0.031
GNAVQEIMIPASKAGLVIGKGGETIKQLQYRAGVKMVMIQDGPQNTGADKPLRITGDPYKVQQAKEMVLELIRD | -0.114 ± 0.06
GNAVQEIMIPASKAGLVIGKGGETIKQLQEAAGVKMVMIQDGPQNTGADKPLRITGDPYKVQQAKEMVLELIRD | -0.036 ± 0.032
GNAVQEIMIPASKAGLVIGKGGETIKQLQECAGVKMVMIQDGPQNTGADKPLRITGDPYKVQQAKEMVLELIRD | -0.084 ± 0.044
GNAVQEIMIPASKAGLVIGKGGETIKQLQEDAGVKMVMIQDGPQNTGADKPLRITGDPYKVQQAKEMVLELIRD | -0.028 ± 0.04
GNAVQEIMIPASKAGLVIGKGGETIKQLQEEAGVKMVMIQDGPQNTGADKPLRITGDPYKVQQAKEMVLELIRD | 0 ± 0.033
GNAVQEIMIPASKAGLVIGKGGETIKQLQEFAGVKMVMIQDGPQNTGADKPLRITGDPYKVQQAKEMVLELIRD | -0.155 ± 0.05
GNAVQEIMIPASKAGLVIGKGGETIKQLQEGAGVKMVMIQDGPQNTGADKPLRITGDPYKVQQAKEMVLELIRD | -0.106 ± 0.028
GNAVQEIMIPASKAGLVIGKGGETIKQLQEHAGVKMVMIQDGPQNTGADKPLRITGDPYKVQQAKEMVLELIRD | 0.032 ± 0.054
GNAVQEIMIPASKAGLVIGKGGETIKQLQEIAGVKMVMIQDGPQNTGADKPLRITGDPYKVQQAKEMVLELIRD | -0.12 ± 0.058
GNAVQEIMIPASKAGLVIGKGGETIKQLQEKAGVKMVMIQDGPQNTGADKPLRITGDPYKVQQAKEMVLELIRD | 0.016 ± 0.039
GNAVQEIMIPASKAGLVIGKGGETIKQLQELAGVKMVMIQDGPQNTGADKPLRITGDPYKVQQAKEMVLELIRD | -0.125 ± 0.031
GNAVQEIMIPASKAGLVIGKGGETIKQLQEMAGVKMVMIQDGPQNTGADKPLRITGDPYKVQQAKEMVLELIRD | -0.096 ± 0.039
GNAVQEIMIPASKAGLVIGKGGETIKQLQEPAGVKMVMIQDGPQNTGADKPLRITGDPYKVQQAKEMVLELIRD | -0.484 ± 0.044
GNAVQEIMIPASKAGLVIGKGGETIKQLQEQAGVKMVMIQDGPQNTGADKPLRITGDPYKVQQAKEMVLELIRD | 0.017 ± 0.038
GNAVQEIMIPASKAGLVIGKGGETIKQLQESAGVKMVMIQDGPQNTGADKPLRITGDPYKVQQAKEMVLELIRD | -0.008 ± 0.03
GNAVQEIMIPASKAGLVIGKGGETIKQLQETAGVKMVMIQDGPQNTGADKPLRITGDPYKVQQAKEMVLELIRD | -0.042 ± 0.035
GNAVQEIMIPASKAGLVIGKGGETIKQLQEVAGVKMVMIQDGPQNTGADKPLRITGDPYKVQQAKEMVLELIRD | -0.113 ± 0.031
GNAVQEIMIPASKAGLVIGKGGETIKQLQEWAGVKMVMIQDGPQNTGADKPLRITGDPYKVQQAKEMVLELIRD | -0.221 ± 0.037
GNAVQEIMIPASKAGLVIGKGGETIKQLQEYAGVKMVMIQDGPQNTGADKPLRITGDPYKVQQAKEMVLELIRD | -0.168 ± 0.056
GNAVQEIMIPASKAGLVIGKGGETIKQLQERCGVKMVMIQDGPQNTGADKPLRITGDPYKVQQAKEMVLELIRD | 0.006 ± 0.043
GNAVQEIMIPASKAGLVIGKGGETIKQLQERDGVKMVMIQDGPQNTGADKPLRITGDPYKVQQAKEMVLELIRD | -0.412 ± 0.055
GNAVQEIMIPASKAGLVIGKGGETIKQLQEREGVKMVMIQDGPQNTGADKPLRITGDPYKVQQAKEMVLELIRD | -0.201 ± 0.038
